Laboratory results as given in patent US20200384079A1, “Compositions of Fibroblast Growth Factor LIgands and Methods of Treating Patients Undergoing Ischemia-Reperfusion Therapy” (University of Cincinnati, priority 2017, published 2020).
Entries after “also recorded” stand apart in the source; their conditions may differ.

B1: FGF1^ΔHBS: FGF1 mutant carrying the K127D/K128Q/K133V triple mutation in its HS-binding region; reduced heparin-binding affinity (protein)
chain: MAEGEITTFTALTEKFNLPPGNYKKPKLLYCSNGGHFLRILPDGTVDGTRDRSDQHIQLQLSAESVGEVYIKSTETGQYLAMDTDGLLYGSQTPNEECLFLERLEENHYNTYISKKHAEKNWFVGLDQNGSCVRGPRTHYGQKAILFLPLPVSSD

Experiments:
wildtype mouse hearts = assay: Ex vivo model, low-flow ischemia and reperfusion; settings: 10 μg immediately at reperfusion; 60 minutes low-flow ischemia, 60 minutes reperfusion
From the text: FIGS. 12A-12B. […] Left bar is vehicle-treated and right bar is FGF2-treated wildtype mouse hearts.

[1] = Pharmacokinetic evaluation after intraperitoneal dose (serum ELISA); type: in vivo, rat; settings: single intraperitoneal dose 0.5 mg/kg
Protocol: CVR-2016-799R1 signaling and the other two sets were to evaluate the pharmacokinetic properties of native FGF1 and modified FGF1 (FGF1^ΔHBS). The first set of experiments was for the ischemia/reperfusion study in which animals were divided into six groups as follows: (1) saline group: saline treatment given intravenously for 10 minutes immediately upon reperfusion, (2) heparin group: heparin, 60 U/kg intravenous (i.v.) bolus, given immediately at reperfusion+12 U/kg/hr i.v. infusion for 120 minutes of reperfusion, (3) FGF1 group: FGF1, 10 μg/kg i.v. infusion, given for 10 minutes immediately at reperfusion, (4) FGF1+heparin: heparin, 60 U/kg bolus, given immediately upon reperfusion followed by FGF1, 10 μg/kg i.v. infusion, given for 10 minutes and 12 U/kg/hr i.v. infusion given for 110 minutes of reperfusion, (5) modified FGF1 (FGF1^ΔHBS) group: FGF1^ΔHBS, 10 μg/kg i.v. infusion, given for 10 minutes, or (6) FGF1^ΔHBS+heparin: heparin, 60 U/kg bolus, given immediately at reperfusion followed by FGF1^ΔHBS, 10 μg/kg i.v. infusion, given for 10 minutes and 12 U/kg/hr i.v. infusion for 110 minutes of reperfusion. All rats were subjected to 30 minutes of regional ischemia and 120 minutes of reperfusion. Drugs were administered at the onset of reperfusion via the jugular vein (FIG. 2A). […] A total of ninety-six rats was completed for the I/R study. Sample size for each group ranged from 9-16 depending on the power analysis. A total of thirty-five rats were excluded from the study based on the lack of cyanosis of the heart or typical elevation of the ST segment in the electrocardiogram during ischemia, and death from malignant arrhythmia. For the biodistribution or FGF1 signaling study, rats were randomly divided into six groups as described above (FIG. 2B). Following drug treatment (immediately following 15 minutes of treatment or 105 minutes post-treatment at the point which mimics the length of time of reperfusion), solid organs and blood (see sections “Tissue collection for exogenous FGF1 biodistribution” and “Cardiac preparation to detect the activation of FGF1 downstream molecules”) were collected. A total of 33 rats were used for biodistribution and FGF1 signaling studies, and 3 rats were excluded due to anesthetic overdose. Also, a total of 8 plasma samples were excluded because of hemolysis. For elimination half-life of native FGF1 and FGF1^ΔHBS, 12 rats were randomly divided into two groups and treated intraperitoneally with either FGF1 form as described in the section “Pharmacokinetic evaluation of exogenous FGF1 or FGF1^ΔHBS ”.
The in vivo half-life of FGF1 or FGF^ΔHBS (given as a single, intraperitoneal dose of
0.5 mg/kg body weight) was assessed, using the human FGF1 immunoassay ELISA kit (R&D System, MN), from blood (i.e., serum) collected at varying times as described previously. The pharmacokinetic parameters of FGF1 or FGF1^ΔHBS were analyzed using the Drug and […]

| Molecule | contractile function (+dP/dt) compared to vehicle (in words) (wildtype mouse hearts) | infarct size compared to vehicle (in words) (wildtype mouse hearts) | absorption phase half-life (in words) ([1]; non-compartmental) | elimination phase half-life (in words) ([1]; non-compartmental, 0.5 mg/kg) | area-under-curve (AUC), fold greater than FGF1 ([1]; serum) [fold] | maximum serum concentration (Cmax), fold greater than FGF1 ([1]; serum) [fold] | time to reach maximum serum concentration (Tmax) (in words) ([1]; 0.5 mg/kg) |
| --- | --- | --- | --- | --- | --- | --- | --- |
| FGF1: native recombinant human fibroblast growth factor 1 | significant enhancement of contractile function | significant reduction in infarct size | – | – | – | – | – |
| B1 | – | – | not significantly different from FGF1 | not significantly different from FGF1 | 2 | 4 | reached earlier than with FGF1; also recorded: relatively fast |
